Among the data in patent publication US20250144178A1 (KANAPH THERAPEUTICS, published 2025) are Kd, koff and kon values, retold here.

Numbering of substitutions follows the chain as printed.

The target in this experiment is T1, recombinant human FAP (human, UniProt Q12884 26-760).
T1 construct: Soluble analyte in SPR; The description calls FAP a homodimer; also called rhFAP
T1 sequence (looked up): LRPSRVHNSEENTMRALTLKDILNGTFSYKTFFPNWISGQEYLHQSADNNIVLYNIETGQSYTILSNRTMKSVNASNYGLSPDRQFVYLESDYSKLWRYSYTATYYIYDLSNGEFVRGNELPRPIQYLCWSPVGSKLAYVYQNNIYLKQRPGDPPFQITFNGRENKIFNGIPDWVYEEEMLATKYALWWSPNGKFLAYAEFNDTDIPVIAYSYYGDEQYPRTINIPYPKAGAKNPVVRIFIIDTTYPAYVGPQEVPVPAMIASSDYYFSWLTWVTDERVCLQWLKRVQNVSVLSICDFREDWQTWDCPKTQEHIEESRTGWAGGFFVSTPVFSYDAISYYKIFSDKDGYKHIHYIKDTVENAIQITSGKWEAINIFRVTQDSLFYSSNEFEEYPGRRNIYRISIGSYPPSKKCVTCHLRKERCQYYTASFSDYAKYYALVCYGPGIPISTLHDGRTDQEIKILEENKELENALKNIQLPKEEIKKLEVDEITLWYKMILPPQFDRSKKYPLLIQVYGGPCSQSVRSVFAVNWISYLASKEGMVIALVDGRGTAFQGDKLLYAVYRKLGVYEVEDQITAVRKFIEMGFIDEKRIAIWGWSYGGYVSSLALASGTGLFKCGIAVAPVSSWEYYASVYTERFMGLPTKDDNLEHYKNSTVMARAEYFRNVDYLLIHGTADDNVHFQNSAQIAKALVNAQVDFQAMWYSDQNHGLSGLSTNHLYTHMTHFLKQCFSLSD
The experiment is described as follows: SPR, captured by anti-human IgG (Fc), human FAP analyte, 1:1 binding model. As to the method:
Bindings of T1.04, T1.05, T1.06, T1.07, T1.08, T1.09, T1.10 and T1.11 to recombinant human […] were identified by surface plasmon resonance (SPR). The surface of the CM5 chip was activated with a 1:1 mixture of […] (N-hydroxysuccinimide) and […] (1-Ethyl-3-(3-dimethylaminopropyl) carbodiimide), and 25 μg/ml of anti-human IgG (Fc) antibody was immobilized for 400 seconds at a rate of 10 μl/min. The remaining active ester groups were blocked with 1 M ethanolamine.
Specifically, human proteins T1.04, T1.05, T1.06, T1.07, T1.08, T1.09, T1.10 and T1.11 were diluted to 1 μg/ml, 1 μg/ml, 1 μg/ml, 1 μg/ml, 0.5 μg/ml, 0.5 μg/ml, 0.5 μg/ml, and 1 μg/ml, respectively, and reacted on a CM5 chip immobilized with an anti-human IgG (Fc) antibody. The recombinant human FAP was diluted to 25 nM or 50 nM in 1×HBS-EP+buffer solution and diluted by serial dilution. The diluted recombinant human FAP was reacted at a rate of 30 μl/min. The association and dissociation times were 180 seconds and 400 seconds, respectively. After the dissociation, stabilization was performed for 60 seconds, and then a regeneration was performed for 30 seconds with a 10 mM glycine pH 1.5 solution at a rate of 30 μl/min.

B1: T1.10 (anti-hu FAP/anti-hu FAP-hu IL-12, hu IgG1 DANG (2 + 1)) (antibody)
heavy 1: QVQLVQSGAEVKKPGASVKVSCKTSRYTFTEYTIHWVRQAPGQRLEWIGGINPNNGIPNYNQKFKGRVTITVDTSASTAYMELSSLRSEDTAVYYCARRRIAYGYDEGHAMDYWGQGTLVTVSSASTKGPSVFPLAPSSKSTSGGTAALGCLVKDYFPEPVTVSWNSGALTSGVHTFPAVLQSSGLYSLSSVVTVPSSSLGTQTYICNVNHKPSNTKVDKKVEPKSCDKTHTCPPCPAPELLGGPSVFLFPPKPKDTLMISRTPEVTCVVVAVSHEDPEVKFNWYVDGVEVHNAKTKPREEQYGSTYRVVSVLTVLHQDWLNGKEYKCKVSNKALPAPIEKTISKAKGQPREPQVYTLPPSRDELTKNQVSLWCLVKGFYPSDIAVEWESNGQPENNYKTTPPVLDSDGSFFLYSKLTVDKSRWQQGNVFSCSVMHEALHNHYTQKSLSLSPGK
heavy 2: QVQLVQSGAEVKKPGASVKVSCKTSRYTFTEYTIHWVRQAPGQRLEWIGGINPNNGIPNYNQKFKGRVTITVDTSASTAYMELSSLRSEDTAVYYCARRRIAYGYDEGHAMDYWGQGTLVTVSSASTKGPSVFPLAPSSKSTSGGTAALGCLVKDYFPEPVTVSWNSGALTSGVHTFPAVLQSSGLYSLSSVVTVPSSSLGTQTYICNVNHKPSNTKVDKKVEPKSCDKTHTCPPCPAPELLGGPSVFLFPPKPKDTLMISRTPEVTCVVVAVSHEDPEVKFNWYVDGVEVHNAKTKPREEQYGSTYRVVSVLTVLHQDWLNGKEYKCKVSNKALPAPIEKTISKAKGQPREPQVYTLPPSRDELTKNQVSLSCAVKGFYPSDIAVEWESNGQPENNYKTTPPVLDSDGSFFLVSKLTVDKSRWQQGNVFSCSVMHEALHNHYTQKSLSLSPGGGGGSGGGGSGGGGSIWELKKDVYVVELDWYPDAPGEMVVLTCDTPEEDGITWTLDQSSEVLGSGKTLTIQVKEFGDAGQYTCHKGGEVLSHSLLLLHKKEDGIWSTDILKDQKEPKNKTFLRCEAKNYSGRFTCWWLTTISTDLTFSVKSSRGSSDPQGVTCGAATLSAERVRGDNKEYEYSVECQEDSACPAAEESLPIEVMVDAVHKLKYENYTSSFFIRDIIKPDPPKNLQLKPLKNSRQVEVSWEYPDTWSTPHSYFSLTFCVQVQGKSKREKKDRVFTDKTSATVICRKNASISVRAQDRYYSSSWSEWASVPCSGGGGSGGGGSGGGGSRNLPVATPDPGMFPCLHHSQNLLRAVSNMLQKARQTLEFYPCTSEEIDHEDITKDKTSTVEACLPLELTKNESCLNSRETSFITNGSCLASRKTSFMMALCLSSIYEDLKMYQVEFKTMNAKLLMDPKRQIFLDQNMLAVIDELMQALNFNSETVPQKSSLEEPDFYKTKIKLCILLHAFRIRAVTIDRVMSYLNAS
light: not shown
notes: single-chain IL-12 at the C-terminus of the hole heavy chain
On to B1, for which the dissociation constant Kd – broadly, the free concentration of one partner at which half of the binding sites on the other are occupied at equilibrium, for simple one-to-one binding – was 0.479 nM; the dissociation rate constant (koff) (in general, the rate constant with which the complex falls apart) is 7.48e-05 s⁻¹; the kon – broadly, a measure of how fast the partners come together – turned out to be 156000 M⁻¹ s⁻¹.

B2: T1.11 (anti-hu FAP/anti-hu FAP-hu IL-12 mut2, hu IgG1 DANG (2 + 1)) (antibody)
heavy 1: B1 heavy 1
heavy 2: B1 heavy 2 with K726A, K728A, K731A, K732A
light: not shown
notes: single-chain IL-12 mut2 at the C-terminus of the hole heavy chain
For B2, the Kd was found to be 0.267 nM, the koff came to 3.19e-05 s⁻¹ and the association rate constant (kon) stood at 120000 M⁻¹ s⁻¹.
